Data published in paper PMC3149064, “Differential Calcium Signaling by Cone Specific Guanylate Cyclase-Activating Proteins from the Zebrafish Retina” (PLoS ONE, 2011).

How the values were obtained:
[1] = molecular target: zebrafish guanylate cyclase-activating protein 1 (zebrafish (Danio rerio)); assay: SEC; analytical size exclusion chromatography (HPLC) on a BioSep-SEC S2000 column with molecular mass standards, 20 µg purified protein, run in the presence of 0.5 mM EGTA (Ca2+-free); dimer to monomers
[2] = molecular target: the molecule itself; assay: as above

Molecule | percent dimers [1] [%] | stoichiometry N [1] | stoichiometry N [2]
zebrafish guanylate cyclase-activating protein 1 (natural protein) | 18 | 2 | –
zebrafish guanylate cyclase-activating protein 7 (natural protein, zebrafish (Danio rerio), UniProt Q5MAC7 1-187, looked up, Non-myristoylated; also called zGCAP7; source: anion exchange, ammonium sulfate precipitation, SEC) MGQNQSDEEEEEVELTEIQPLYTRFMKVCPSGALHLHEFRRIFGVQSSSEEEALYMETIFKSFDTNRDNVIDFMEFVAAVHLVLRGNLEDRLKWSFKVYDRDENGKLDRQEVIHVIRILCKLKKNRINMTPVEICDRIFELLDENNDGQISLSEFLEGAEKDAWIMDLLKLDTNARVWFRDNLGKKT | – | – | 2
